Molecular target: T1, Grb2 (adapter protein, from Jurkat T cell lysates) (human, UniProt P62993 1-217)
T1 construct: also called adapter protein Grb2
Assay: pull-down from Jurkat lysates on Talon beads, anti-Grb2 immunoblot
Method: In this Example, experiments were performed to determine if human MIST provided by the present invention associated with signaling proteins critical for cell activation. For this purpose, cell lysates from unstimulated Jurkat T cells, or TCR/CD3-activated Jurkat T cells, were prepared and precipitated with Talon resin beads (Clontech, Palo Alto, Calif.) preloaded with equivalent amounts (5 μg total) of His-MIST fusion proteins. The phosphotyrosine content of precipitated proteins was analyzed by SDS-PAGE followed by Western blotting with an anti-phosphotyrosine specific antibody (4G10, UBI, Hauppague, N.Y.).
More specifically, Jurkat T cells (10⁷/lane) were unstimulated, or were stimulated with monoclonal antibody (MoAb) to the T-cell receptor TCR/CD3 (G19-4-BMS) for 5 minutes at 37° C., and then lysed in 1% NP40-containing lysis buffer and incubated with Talon beads preloaded with equivalent amounts (50 μl of slurry resin) of the indicated His-MIST fusion proteins. Reactants and immunoprecipitates were subjected to SDS-PAGE on 4-20% gradient gels. […] Blot stripping was performed and the membrane was subsequently re-probed with anti-Grb2 MoAb (Santa Cruz Biotechnology, Inc., Santa Cruz, Calif.), anti-Cbl MoAb (Santa Cruz Biotechnology, Inc., Santa Cruz, Calif.), or anti-Vav1 MoAb (Upstate Biotechnology, Inc., Lake Placid, N.Y.).

T1 sequence (P62993 whole entry): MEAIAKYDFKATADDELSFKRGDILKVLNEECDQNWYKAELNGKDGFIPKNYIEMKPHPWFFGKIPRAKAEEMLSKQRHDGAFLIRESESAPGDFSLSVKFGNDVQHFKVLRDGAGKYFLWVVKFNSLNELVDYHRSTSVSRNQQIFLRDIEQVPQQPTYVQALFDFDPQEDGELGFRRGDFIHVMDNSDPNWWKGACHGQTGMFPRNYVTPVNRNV

B1: His-MIST-SH2 (poly-histidine tagged MIST SH2 domain, residues 320-443) (other, not shown: small tags and cut ends)
chain: QHNEWYIGEYSRQAVEEAFMKENKDGSFLVRDCSTKSKEEPYVLAVFYENKVYNVKIRFLERNQQFALGTGLRGDEKFDSVEDIIEHYKNFPIILIDGKDKTGVHRKQCHLTQPLPLTRHLLPL
notes: Recombinant, Sf9 cells; also called His-MIST-SH2 fusion protein
- binding result: no binding
